Test system: MS2 coat protein
Test: apparent KD of MS2 coat protein; designed switch direction (-1 OFF switch, 1 ON switch): 1; higher = weaker reporter binding
In short: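 On Illumina chips, designed RNA switches with common flanks were made by stalled E. coli RNA polymerase. Titrations with SNAP-549-labelled MS2 coat protein, doubling from 0.7 or 1.5 nM to 3 µM, were done with no input, with 200 uM small-molecule ligand, or with an oligonucleotide input. Apparent KD is the median per design over clusters, from curve fits of normalised cluster fluorescence.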

[1] = input ligand: microRNA oligo, concentration not stated
[2] = Eterna round: R95, input ligand: FMN 200 uM
[3] = Eterna round: R95, input ligand: microRNA oligo, concentration not stated
[4] = Eterna round: R95, input ligand: none

| Sequence | apparent KD of MS2 coat protein (input ligand: FMN 200 uM) | apparent KD of MS2 coat protein [1] | apparent KD of MS2 coat protein (input ligand: none) | apparent KD of MS2 coat protein [2] | apparent KD of MS2 coat protein [3] | apparent KD of MS2 coat protein [4] |
| --- | --- | --- | --- | --- | --- | --- |
| UUACUCAUGUAAGGAUAUGCAGCCGAAACGGCUGCAGAAGGUACUAUAAUACAUGAGGAUCACCCAUGUCAAAAUAAUUUUUAC [Mat - Same State NG 1 - JL mod - D71] (Eterna round: R96, puzzle: Same State NG 1) | 44.9 nM | 21.7 nM | 27.5 nM | – | – | – |
| GUGGUCAGACAUGAGGAUCACCCAUGUGGAAUAAAUAAGGAAUAGGAUAUGGAAUAUAGGAUAUACCAGAAGGGUUGGUUGGUG (Eterna round: R96, puzzle: Same State NG 3) | – | 73.4 nM | – | – | – | – |
| GCCGUAAUAACAUGAGGAUCACCCAUGUGCGCGAGAGUGGAUGAGGAUAUCGAUGGGUUUCCCGUCGAGAAGGCGUGGGUCGGC [JL SSNG3 3.98] (Eterna round: R96, puzzle: Same State NG 3) | 28 nM | 24.5 nM | 38.5 nM | – | – | – |
| GUAAAACAUGAGGAUCACCCAUGUAAUAAUAUGGGAGGAUAUCAGAUUUAAUUUAAUUUAUGAGAAGGCCUAAAUU [Mat - Same State 1 - Mod of Eli - D62] (puzzle: Same State 1) | – | – | – | 43.4 nM | 488 nM | 596 nM |
| ACAUGAAAUUGAGGAUAUUUUGUACCUACAUGUGACAUGAGGAUCACCCAUGUGGUAAGUAUAAGAGAGAAGGCAAAGAUAUGU [Equivalence 6 - Jieux - Same State NG 2] (Eterna round: R96, puzzle: Same State NG 2) | 30 nM | 29.2 nM | 45.1 nM | – | – | – |
| ACUAGAAGCGGGCAAUAACACAUGAGGAUCACCCAUGUGACACAGGAUAUAACCAGAUCAGAAAGUUAGAAGGGUGAGCCCGCA [Usatbere] (Eterna round: R96, puzzle: Same State NG 3) | 13.2 nM | 19.9 nM | 27.4 nM | – | – | – |
| GUAAUACAUGAGGAUCACCCAUGUCAAUGUAGUCGAGGAUAUGGGUAGCUAUGAGGCUUACUAGAAGGCGACGAGC [Same State 1 - Mod of Vinnie Teenbexe v.5] (Eterna round: R96, puzzle: Same State 1) | 46.5 nM | 208 nM | 249 nM | – | – | – |
| AGAGCCGGCACUGAGGAUAUUCAUAAUAAAACAUGAGGAUCACCCAUGUAGGCCAGAAGGCCUUGGGAGAAGGCAGGUCGGCUCU [Mat - Same State 2 - Mod of UCT - D69] (puzzle: Same State 2) | – | – | – | 17.7 nM | 168 nM | 220 nM |
| CGGGUACAUGAGGAUCACCCAUGUGGGAGGGAUGCAGGAUAUGUGGGAAAAGGGUAUGUAACAGAAGGGCAAGGAG [JR_SS!_Sub014] (puzzle: Same State 1) | – | – | – | 30.8 nM | 31.8 nM | 45.1 nM |
| UUGGUUGUCGUAGGAUAUGUAGGAUAUUCCUACAUGAGGAUCACCCAUGUUCGCAUGGAAGAAGGACAGAAGGACGAUGACCAU [pwkr ssNG2 2FMN + 1F5.20] (Eterna round: R96, puzzle: Same State NG 2) | 16.8 nM | 904 nM | 836 nM | – | – | – |
| AAACACAUGAGGAUCACCCAUGUAGCGCCAUUAAAGCGCACAUAGGAUAUCCGGUCCUAAAGACCGGAGAAGGGUGAAAGAAAA [Zara] (Eterna round: R96, puzzle: Same State NG 3) | 54.8 nM | 76.2 nM | 121 nM | – | – | – |
| GCAGGACGAUAAUAUAUCUUCACAUGAGGAUCACCCAUGUCUCAGGAUAUGGAUCCUAAUUGGAUCCAGAAGGGAGCGUCCUGC [Fiskers NG3ss - 33] (Eterna round: R96, puzzle: Same State NG 3) | 33.2 nM | 43.3 nM | 54.4 nM | – | – | – |
| UGAGCCGGCACUGAGGAUAUUCAUAAUAAAACAUGAGGAUCACCCAUGUAGGCCAGAAGGCCUUGGGAGAAGGCAGGUCGGCUCA [Mat - Same State 2 - Mod of UCT - D71] (puzzle: Same State 2) | – | – | – | 16.7 nM | 134 nM | 247 nM |
| AGAUCAUGACGAGGAUAUGGUACAUGAGGAUCACCCAUGUAUGUACCACGACGCGUACGUCGAAUCCAGAAGGCGUCGUGAUCA [Mat - Same State NG 2 - JL mod - D16] (Eterna round: R96, puzzle: Same State NG 2) | 19 nM | 66.1 nM | 99.3 nM | – | – | – |
| GGAGGAUUCGCAGGAUAUUCCUGAACACUGUAGGAAGAAGGGUGACGUAUCAGCACCAAGUGACAUGAGGAUCACCCAUGUUAA [Eternabot solution 24] (Eterna round: R96, puzzle: Same State NG 1) | 137 nM | 93.7 nM | 114 nM | – | – | – |
| ACAUGAGAGCUAGGAUAUUUUGUACCUACAUGUGACAUGAGGAUCACCCAUGUGGUAAGUAUGAGAAAGAAGGAGCAGAUAUGU [Equivalance 53 - Jieux - Same State NG 2] (Eterna round: R96, puzzle: Same State NG 2) | 14.9 nM | 30.7 nM | 38 nM | – | – | – |
| GAGUGGUUGGGAGGAUAUGCAUUGUUAUUAAAUGCAGAAGGUUUUAACAUGAGGAUCACCCAUGUAGGACUAUUCCUGUGUUUC [Parity 68 - Jieux - Same State NG 1] (Eterna round: R96, puzzle: Same State NG 1) | – | 12.6 nM | – | – | – | – |
| GCUAGAAUUAAAGCCAACAUGAGGAUCACCCAUGUAUGUUGGCAGGAUAUCGUUUGCUUUGCAAACGAGAAGGGCCAAACUAGC [JL SSNG3 1.01] (Eterna round: R96, puzzle: Same State NG 3) | 20.6 nM | 76.1 nM | 120 nM | – | – | – |
| AGUCCAGCCUGAGCUGGACAAAAGCAUGUACAUGAGGAUCACCCAUGUUCAUGUAUAAGCUUUUUGCUCGUCUUAAA [Zipper 52 - 11] (puzzle: Sensor for hsa-mir-208a) | – | – | – | 18.5 nM | 10.2 nM | 17.2 nM |
| AUGAAGAAUUAAGGAUAUUGAUUACAUAUGUUUAACAUGAGGAUCACCCAUGUGGGUUGCGGUAUCGAGAAGGUAAAUUACUAG [JL SSNG2 1.48] (Eterna round: R96, puzzle: Same State NG 2) | 150 nM | 99.6 nM | 128 nM | – | – | – |
| UUUCGAUAGAUAGGAUAUCACUUUACAUGAGGAUCACCCAUGUUGGCUGUGCUGAUUAUUAAAACUGAGAAGGAUCUUGAUGAC [JR_SSNG2_Sub003] (Eterna round: R96, puzzle: Same State NG 2) | 25.2 nM | 22 nM | 23.5 nM | – | – | – |
| UGUUGUAUUACAGGAUAUCUAGUAUUUUUAUCUAGAGAAGGGUAUUCACAUGAGGAUCACCCAUGUAUAUACGAGGAAGUUGUG [JMF's solution 53] (Eterna round: R96, puzzle: Same State NG 1) | – | 25.9 nM | – | – | – | – |
| CUGAGCAAUCGAGGAUAUCACGUCGUUUAGACGUGAGAAGGCGAUCAUAACAUGAGGAUCACCCAUGUAUUACAUGAAGCUCAG [SSNG1/4-A3] (Eterna round: R96, puzzle: Same State NG 1) | 13.6 nM | 10.1 nM | 13.3 nM | – | – | – |
| UUUGAAUUGCAAGGAUAUCUUAUUUAGAUUUUAAGAGAAGGUGCUUUACAGUUACAUGAGGAUCACCCAUGUCUUUCUUUUUAU [JR_SSNG1_Sub063] (Eterna round: R96, puzzle: Same State NG 1) | – | 19.3 nM | – | – | – | – |
| AAUAUUUAUGCAGGAUAUGAUUAACAUGAGGAUCACCCAUGUGGUGUUGUGAGUAAGGAGAGUGAUCAGAAGGGCAUUUUUUUU [JMF's solution 73] (Eterna round: R96, puzzle: Same State NG 2) | 379 nM | 271 nM | 463 nM | – | – | – |
| UUUUUUUUGACGAGACAAGCUUUUUGAUCACAUGAGGAUCACCCAUGUCUCGUCUUAUUUUUUUUUUUUUUUUUUUU [BA Sensor hsa-mir-208a - 2 - 2] (puzzle: Sensor for hsa-mir-208a) | – | – | – | 17.4 nM | 9.64 nM | 7.54 nM |
| UAGAGAGGAAGCGAGGAUAUCGUGUGAGGAACAUGAGGAUCACCCAUGUGUGAUGUUGAGAGAGACGAGAAGGCGCAGGAGAUUA [JR_SS2_Sub083] (puzzle: Same State 2) | – | – | – | 87.5 nM | 150 nM | 140 nM |
| GCUCGAUGAUAGGCCUACAUGAGGAUCACCCAUGUAAGUGGGCAGGAUAUCUACAUGCAGAAUGUAGAGAAGGGCCCGUCGAGC [SameState NG3 #55] (Eterna round: R96, puzzle: Same State NG 3) | 20.5 nM | 66 nM | 83.9 nM | – | – | – |
| AACAAUCUAUCUGAGGAUAUCAUGAAAUAAACAUGAGGAUCACCCAUGUGCAGGAAAACUGCAUAUUAGAAGGCAGAUAGAUUGA [salish99_ss2_r3_049] (puzzle: Same State 2) | – | – | – | 163 nM | 38.8 nM | 151 nM |
| AAAAGAAACACAGGAUAUACCGCAAUUAACACGGUAGAAGGGUGGGACAUGAGGAUCACCCAUGUGACCUGAACACCAGGUCGC [Enrien] (Eterna round: R96, puzzle: Same State NG 1) | 369 nM | 17.9 nM | 105 nM | – | – | – |

Reference: the supplement of paper PMC9170038
